Experiment [1] addresses FcγRIIb, human, C-terminally biotinylated (human) (UniProt P31994). In words: SPR. Particulars: natural protein; remark: other sources report otherwise.
The target of experiment [2] is FcγRIa, FcγRIIa/b, and FcγRIIIa. In words: SPR; IBIS MX96 array; C-terminally biotinylated FcRs spotted at different densities (100–1 nM) on one SensEye G-streptavidin sensor, blocked with biotinylated BSA; CRP injected in 2-fold dilutions from 0.98 to 2,000 nM in 20 mM Tris, 280 mM NaCl, 5 mM CaCl2, pH 8.0; KD by equilibrium fitting to Rmax = 500. A general note: Surface plasmon resonance follows binding to a sensor surface in real time, without labels.

Chain of FcγRIIb, human, C-terminally biotinylated (human) (P31994 43-217): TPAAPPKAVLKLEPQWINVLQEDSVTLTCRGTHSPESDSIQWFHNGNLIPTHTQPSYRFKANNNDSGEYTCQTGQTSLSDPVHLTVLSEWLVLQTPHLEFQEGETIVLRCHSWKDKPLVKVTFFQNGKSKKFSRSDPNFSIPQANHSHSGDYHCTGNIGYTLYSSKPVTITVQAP

As usually defined, the Kd is the free concentration of one partner at which half of the binding sites on the other are occupied at equilibrium, for simple one-to-one binding. Read a low Kd as a tighter complex. Substance “C-reactive protein (native CRP from human fluid) (from UniProt P02741 19-224)” gave a Kd in experiment [1] of 4.2 µM. Consider “C-reactive protein (native CRP from human fluid) (from UniProt P02741 19-224) (natural protein)”, for which, in experiment [2], the Kd is 3.4 to 4.9 µM.

Values taken from PMC8006934.
